What was measured:
[1] = tested on: HeLa Kyoto; assay: solubility in G1/S (NP-40 vs SDS abundance) (log2 ratio); higher = more soluble; conditions: cell cycle stage: G1/S
[2] = tested on: HeLa Kyoto; assay: melting temperature (median over replicates), in situ; higher = more thermally stable
[3] = tested on: HeLa Kyoto; assay: solubility change mitosis vs G1/S (difference of NP-40 vs SDS log2 ratios) (log2 ratio difference); higher = more soluble in mitosis
[4] = tested on: HeLa Kyoto; assay: thermal stability score vs G1/S (z-score of summed log2 fold changes over temperatures); higher = more thermally stable than in G1/S
[5] = cell cycle stage: early G1 (4.5 h after nocodazole release)
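Wherever melting temperature (median over replicates), in situ is given: HeLa Kyoto cells synchronized by double thymidine or nocodazole block, proteins quantified by TMT10plex mass spectrometry, three independent biological replicates.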
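Wherever solubility change mitosis vs G1/S (difference of NP-40 vs SDS log2 ratios) is given: synchronized HeLa Kyoto cells (double thymidine block for G1/S, nocodazole release for mitosis), protein amounts in NP-40 versus SDS lysates quantified by mass spectrometry, three biological replicates.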
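Wherever solubility in G1/S (NP-40 vs SDS abundance) is given: HeLa Kyoto cells arrested at G1/S by double thymidine block, proteins quantified by TMT10plex mass spectrometry in mild NP-40 versus SDS extracts, three biological replicates.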
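Wherever thermal stability score vs G1/S (z-score of summed log2 fold changes over temperatures) is given: synchronized HeLa Kyoto cells, proteins quantified by TMT10plex mass spectrometry, three biological replicates, mitosis taken 0.5 h after nocodazole release, G1/S directly after double thymidine block.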

Sequence of POLD2 (chain, as listed by the source): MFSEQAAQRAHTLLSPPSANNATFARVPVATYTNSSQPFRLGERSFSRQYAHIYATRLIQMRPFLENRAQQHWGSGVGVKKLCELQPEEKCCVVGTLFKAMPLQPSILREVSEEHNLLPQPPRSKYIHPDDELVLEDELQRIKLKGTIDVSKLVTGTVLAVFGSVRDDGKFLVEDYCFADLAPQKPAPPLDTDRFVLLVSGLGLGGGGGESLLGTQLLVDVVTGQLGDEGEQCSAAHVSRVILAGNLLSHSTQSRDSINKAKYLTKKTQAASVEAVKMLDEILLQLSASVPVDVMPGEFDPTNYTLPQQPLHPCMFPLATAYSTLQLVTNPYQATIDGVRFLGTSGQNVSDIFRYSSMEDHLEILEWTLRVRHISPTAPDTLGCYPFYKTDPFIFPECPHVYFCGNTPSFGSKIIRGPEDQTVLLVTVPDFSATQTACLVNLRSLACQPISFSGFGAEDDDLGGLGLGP

Row | Substance | solubility in G1/S (log2) [1] | melting temperature ([2]; cell cycle stage: G1/S) | melting temperature ([2]; cell cycle stage: mitosis) | solubility change mitosis (log2) [3] | thermal stability score [4, 5] | thermal stability score ([4]; cell cycle stage: mitosis)
1 | MSWVQATLLARGLCRAWGGTCGAALTGTSISQVPRRLPRGLHCSAAAHSSEQSLVPSPPEPRQRPTKALVPFEDLFGQAPGGERDKASFLQTVQKFAEHSVRKRGHIDFIYLALRKMREYGVERDLAVYNQLLNIFPKEVFRPRNIIQRIFVHYPRQQECGIAVLEQMENHGVMPNKETEFLLIQIFGRKSYPMLKLVRLKLWFPRFMNVNPFPVPRDLPQDPVELAMFGLRHMEPDLSARVTIYQVPLPKDSTGAADPPQPHIVGIQSPDQQAALARHNPARPVFVEGPFSLWLRNKCVYYHILRADLLPPEEREVEETPEEWNLYYPMQLDLEYVRSGWDNYEFDINEVEEGPVFAMCMAGAHDQATMAKWIQGLQETNPTLAQIPVVFRLAGSTRELQTSSAGLEEPPLPEDHQEEDDNLQRQQQGQS [ECSIT] | -0.0136 | 54.4 °C | 56.1 °C | -0.1 | 2.4 | 3.63
2 | MFLVGLTGGIASGKSSVIQVFQQLGCAVIDVDVMARHVVQPGYPAHRRIVEVFGTEVLLENGDINRKVLGDLIFNQPDRRQLLNAITHPEIRKEMMKETFKYFLRGYRYVILDIPLLFETKKLLKYMKHTVVVYCDRDTQLARLMRRNSLNRKDAEARINAQLPLTDKARMARHVLDNSGEWSVTKRQVILLHTELERSLEYLPLRFGVLTGLAAIASLLYLLTHYLLPYA [DCAKD] | -0.0828 | 51.7 °C | 50.9 °C | -0.182 | -0.154 | 0.0944
3 | POLD2 | 0.263 | 49.9 °C | 49.5 °C | -0.136 | 1.48 | 2.07
4 | MKLLTHNLLSSHVRGVGSRGFPLRLQATEVRICPVEFNPNFVARMIPKVEWSAFLEAADNLRLIQVPKGPVEGYEENEEFLRTMHHLLLEVEVIEGTLQCPESGRMFPISRGIPNMLLSEEETES [TRMT112] | 0.323 | 51.5 °C | 51.4 °C | 0.201 | -4.68 | -1.02
5 | MSEDLAKQLASYKAQLQQVEAALSGNGENEDLLKLKKDLQEVIELTKDLLSTQPSETLASSDSFASTQPTHSWKVGDKCMAVWSEDGQCYEAEIEEIDEENGTAAITFAGYGNAEVTPLLNLKPVEEGRKAKEDSGNKPMSKKEMIAQQREYKKKKALKKAQRIKELEQEREDQKVKWQQFNNRAYSKNKKGQVKRSIFASPESVTGKVGVGTCGIADKPMTQYQDTSKYNVRHLMPQ [SMNDC1] | 0.271 | 57.7 °C | 55.9 °C | 0.405 | -2.66 | -6.93
6 | MSTKQITCRYFMHGVCREGSQCLFSHDLANSKPSTICKYYQKGYCAYGTRCRYDHTRPSAAAGGAVGTMAHSVPSPAFHSPHPPSEVTASIVKTNSHEPGKREKRTLVLRDRNLSGMAERKTQPSMVSNPGSCSDPQPSPEMKPHSYLDAIRSGLDDVEASSSYSNEQQLCPYAAAGECRFGDACVYLHGEVCEICRLQVLHPFDPEQRKAHEKICMLTFEHEMEKAFAFQASQDKVCSICMEVILEKASASERRFGILSNCNHTYCLSCIRQWRCAKQFENPIIKSCPECRVISEFVIPSVYWVEDQNKKNELIEAFKQGMGKKACKYFEQGKGTCPFGSKCLYRHAYPDGRLAEPEKPRKQLSSQGTVRFFNSVRLWDFIENRESRHVPNNEDVDMTELGDLFMHLSGVESSEP [MKRN2] | 0.161 | 46.5 °C | 48.6 °C | -0.033 | 0.686 | 1.44
7 | MAGGAREVLTLQLGHFAGFVGAHWWNQQDAALGRATDSKEPPGELCPDVLYRTGRTLHGQETYTPRLILMDLKGSLSSLKEEGGLYRDKQLDAAIAWQGKLTTHKEELYPKNPYLQDFLSAEGVLSSDGVWRVKSIPNGKGSSPLPTATTPKPLIPTEASIRVWSDFLRVHLHPRSICMIQKYNHDGEAGRLEAFGQGESVLKEPKYQEELEDRLHFYVEECDYLQGFQILCDLHDGFSGVGAKAAELLQDEYSGRGIITWGLLPGPYHRGEAQRNIYRLLNTAFGLVHLTAHSSLVCPLSLGGSLGLRPEPPVSFPYLHYDATLPFHCSAILATALDTVTVPYRLCSSPVSMVHLADMLSFCGKKVVTAGAIIPFPLAPGQSLPDSLMQFGGATPWTPLSACGEPSGTRCFAQSVVLRGIDRACHTSQLTPGTPPPSALHACTTGEEILAQYLQQQQPGVMSSSHLLLTPCRVAPPYPHLFSSCSPPGMVLDGSPKGAAVESIPVFGALCSSSSLHQTLEALARDLTKLDLRRWASFMDAGVEHDDVAELLQELQSLAQCYQGGDSLVD [MSTO1] | 0.162 | 51.2 °C | 51.1 °C | -0.0764 | 0.792 | 0.318
8 | MPAPTQLFFPLIRNCELSRIYGTACYCHHKHLCCSSSYIPQSRLRYTPHPAYATFCRPKENWWQYTQGRRYASTPQKFYLTPPQVNSILKANEYSFKVPEFDGKNVSSILGFDSNQLPANAPIEDRRSAATCLQTRGMLLGVFDGHAGCACSQAVSERLFYYIAVSLLPHETLLEIENAVESGRALLPILQWHKHPNDYFSKEASKLYFNSLRTYWQELIDLNTGESTDIDVKEALINAFKRLDNDISLEAQVGDPNSFLNYLVLRVAFSGATACVAHVDGVDLHVANTGDSRAMLGVQEEDGSWSAVTLSNDHNAQNERELERLKLEHPKSEAKSVVKQDRLLGLLMPFRAFGDVKFKWSIDLQKRVIESGPDQLNDNEYTKFIPPNYHTPPYLTAEPEVTYHRLRPQDKFLVLATDGLWETMHRQDVVRIVGEYLTGMHHQQPIAVGGYKVTLGQMHGLLTERRTKMSSVFEDQNAATHLIRHAVGNNEFGTVDHERLSKMLSLPEELARMYRDDITIIVVQFNSHVVGAYQNQE [PDP1] | 0.103 | 52.7 °C | 51.6 °C | -0.0758 | 0.767 | 1.07
9 | MKLLTRAGSFSRFYSLKVAPKVKATAAPAGAPPQPQDLEFTKLPNGLVIASLENYSPVSRIGLFIKAGSRYEDFSNLGTTHLLRLTSSLTTKGASSFKITRGIEAVGGKLSVTATRENMAYTVECLRGDVDILMEFLLNVTTAPEFRRWEVADLQPQLKIDKAVAFQNPQTHVIENLHAAAYRNALANPLYCPDYRIGKVTSEELHYFVQNHFTSARMALIGLGVSHPVLKQVAEQFLNMRGGLGLSGAKANYRGGEIREQNGDSLVHAAFVAESAVAGSAEANAFSVLQHVLGAGPHVKRGSNTTSHLHQAVAKATQQPFDVSAFNASYSDSGLFGIYTISQATAAGDVIKAAYNQVKTIAQGNLSNTDVQAAKNKLKAGYLMSVESSECFLEEVGSQALVAGSYMPPSTVLQQIDSVANADIINAAKKFVSGQKSMAASGNLGHTPFVDEL [UQCRC2] | 0.243 | 55.8 °C | 54.7 °C | -0.00613 | -1.64 | -4.8
10 | MCDIEEATNQLLDVNLHENQKSVQVTESDLGSESELLVTIGATVPTGFEQTAADEVREKLGSSCKISRDRGKIYFVISVESLAQVHCLRSVDNLFVVVQEFQDYQFKQTKEEVLKDFEDLAGKLPWSNPLKVWKINASFKKKKAKRKKINQNSSKEKINNGQEVKIDQRNVKKEFTSHALDSHILDYYENPAIKEDVSTLIGDDLASCKDETDESSKEETEPQVLKFRVTCNRAGEKHCFTSNEAARDFGGAVQDYFKWKADMTNFDVEVLLNIHDNEVIVGIALTEESLHRRNITHFGPTTLRSTLAYGMLRLCDPLPYDIIVDPMCGTGAIPIEGATEWSDCFHIAGDNNPLAVNRAANNIASLLTKSQIKEGKPSWGLPIDAVQWDICNLPLRTGSVDIIVTDLPFGKRMGSKKRNWNLYPACLREMSRVCTPTTGRAVLLTQDTKCFTKALSGMRHVWRKVDTVWVNVGGLRAAVYVLIRTPQAFVHPSEQDGERGTLWQCKE [THUMPD3] | 0.109 | 52.9 °C | 53 °C | -0.147 | -1 | -2.07
11 | MAAASGYTDLREKLKSMTSRDNYKAGSREAAAAAAAAVAAAAAAAAAAEPYPVSGAKRKYQEDSDPERSDYEEQQLQKEEEARKVKSGIRQMRLFSQDECAKIEARIDEVVSRAEKGLYNEHTVDRAPLRNKYFFGEGYTYGAQLQKRGPGQERLYPPGDVDEIPEWVHQLVIQKLVEHRVIPEGFVNSAVINDYQPGGCIVSHVDPIHIFERPIVSVSFFSDSALCFGCKFQFKPIRVSEPVLSLPVRRGSVTVLSGYAADEITHCIRPQDIKERRAVIILRKTRLDAPRLETKSLSSSVLPPSYASDRLSGNNRDPALKPKRSHRKADPDAAHRPRILEMDKEENRRSVLLPTHRRRGSFSSENYWRKSYESSEDCSEAAGSPARKVKMRRH [ALKBH5] | -0.0973 | 51 °C | 51.4 °C | 0.0485 | 3.65 | -0.482
12 | MADEGKSYSEHDDERVNFPQRKKKGRGPFRWKYGEGNRRSGRGGSGIRSSRLEEDDGDVAMSDAQDGPRVRYNPYTTRPNRRGDTWHDRDRIHVTVRRDRAPPERGGAGTSQDGTSKNWFKITIPYGRKYDKAWLLSMIQSKCSVPFTPIEFHYENTRAQFFVEDASTASALKAVNYKILDRENRRISIIINSSAPPHTILNELKPEQVEQLKLIMSKRYDGSQQALDLKGLRSDPDLVAQNIDVVLNRRSCMAATLRIIEENIPELLSLNLSNNRLYRLDDMSSIVQKAPNLKILNLSGNELKSERELDKIKGLKLEELWLDGNSLCDTFRDQSTYISAIRERFPKLLRLDGHELPPPIAFDVEAPTTLPPCKGSYFGTENLKSLVLHFLQQYYAIYDSGDRQGLLDAYHDGACCSLSIPFIPQNPARSSLAEYFKDSRNVKKLKDPTLRFRLLKHTRLNVVAFLNELPKTQHDVNSFVVDISAQTSTLLCFSVNGVFKEVDGKSRDSLRAFTRTFIAVPASNSGLCIVNDELFVRNASSEEIQRAFAMPAPTPSSSPVPTLSPEQQEMLQAFSTQSGMNLEWSQKCLQDNNWDYTRSAQAFTHLKAKGEIPEVAFMK [NXF1] | -0.89 | 47.3 °C | 49.1 °C | 0.533 | 1.64 | 4.14
13 | ABCC5 | -0.243 | 53.6 °C | 53.8 °C | 0.0132 | -0.48 | -1.25
14 | MGWVGGRRRDSASPPGRSRSAADDINPAPANMEGGGGSVAVAGLGARGSGAAAATVRELLQDGCYSDFLNEDFDVKTYTSQSIHQAVIAEQLAKLAQGISQLDRELHLQVVARHEDLLAQATGIESLEGVLQMMQTRIGALQGAVDRIKAKIVEPYNKIVARTAQLARLQVACDLLRRIIRILNLSKRLQGQLQGGSREITKAAQSLNELDYLSQGIDLSGIEVIENDLLFIARARLEVENQAKRLLEQGLETQNPTQVGTALQVFYNLGTLKDTITSVVDGYCATLEENINSALDIKVLTQPSQSAVRGGPGRSTMPTPGNTAALRASFWTNMEKLMDHIYAVCGQVQHLQKVLAKKRDPVSHICFIEEIVKDGQPEIFYTFWNSVTQALSSQFHMATNSSMFLKQAFEGEYPKLLRLYNDLWKRLQQYSQHIQGNFNASGTTDLYVDLQHMEDDAQDIFIPKKPDYDPEKALKDSLQPYEAAYLSKSLSRLFDPINLVFPPGGRNPPSSDELDGIIKTIASELNVAAVDTNLTLAVSKNVAKTIQLYSVKSEQLLSTQGDASQVIGPLTEGQRRNVAVVNSLYKLHQSVTKVVSSQSSFPLAAEQTIISALKAIHALMENAVQPLLTSVGDAIEAIIITMHQEDFSGSLSSSGKPDVPCSLYMKELQGFIARVMSDYFKHFECLDFVFDNTEAIAQRAVELFIRHASLIRPLGEGGKMRLAADFAQMELAVGPFCRRVSDLGKSYRMLRSFRPLLFQASEHVASSPALGDVIPFSIIIQFLFTRAPAELKSPFQRAEWSHTRFSQWLDDHPSEKDRLLLIRGALEAYVQSVRSREGKEFAPVYPIMVQLLQKAMSALQ [COG5] | 0.00411 | 48.3 °C | 48 °C | -0.0443 | 0.309 | 0.873
15 | MENGYTYEDYKNTAEWLLSHTKHRPQVAIICGSGLGGLTDKLTQAQIFDYGEIPNFPRSTVPGHAGRLVFGFLNGRACVMMQGRFHMYEGYPLWKVTFPVRVFHLLGVDTLVVTNAAGGLNPKFEVGDIMLIRDHINLPGFSGQNPLRGPNDERFGDRFPAMSDAYDRTMRQRALSTWKQMGEQRELQEGTYVMVAGPSFETVAECRVLQKLGADAVGMSTVPEVIVARHCGLRVFGFSLITNKVIMDYESLEKANHEEVLAAGKQAAQKLEQFVSILMASIPLPDKAS [PNP] | 0.301 | 60.3 °C | 60.2 °C | -0.144 | -0.982 | -1.39

Reference: the supplement of paper PMC5998384
